Values quoted from earlier work as cited in patent US8633160B2, “Small molecule inhibitors of PDZ interactions” (Nono Inc., priority 2005, dated 2014).

Assays:
N-type calcium channel = N-type calcium channel (Homo sapiens, UniProt Q00975); conditions: data of U.S. Provisional Application No. 60/904,507; cited from earlier work
[1] = tested on: middle cerebral artery occlusion (MCAO) model of stroke; conditions: rat, previously tested; cited from earlier work

Sequence of N-type calcium channel (Q00975 whole entry): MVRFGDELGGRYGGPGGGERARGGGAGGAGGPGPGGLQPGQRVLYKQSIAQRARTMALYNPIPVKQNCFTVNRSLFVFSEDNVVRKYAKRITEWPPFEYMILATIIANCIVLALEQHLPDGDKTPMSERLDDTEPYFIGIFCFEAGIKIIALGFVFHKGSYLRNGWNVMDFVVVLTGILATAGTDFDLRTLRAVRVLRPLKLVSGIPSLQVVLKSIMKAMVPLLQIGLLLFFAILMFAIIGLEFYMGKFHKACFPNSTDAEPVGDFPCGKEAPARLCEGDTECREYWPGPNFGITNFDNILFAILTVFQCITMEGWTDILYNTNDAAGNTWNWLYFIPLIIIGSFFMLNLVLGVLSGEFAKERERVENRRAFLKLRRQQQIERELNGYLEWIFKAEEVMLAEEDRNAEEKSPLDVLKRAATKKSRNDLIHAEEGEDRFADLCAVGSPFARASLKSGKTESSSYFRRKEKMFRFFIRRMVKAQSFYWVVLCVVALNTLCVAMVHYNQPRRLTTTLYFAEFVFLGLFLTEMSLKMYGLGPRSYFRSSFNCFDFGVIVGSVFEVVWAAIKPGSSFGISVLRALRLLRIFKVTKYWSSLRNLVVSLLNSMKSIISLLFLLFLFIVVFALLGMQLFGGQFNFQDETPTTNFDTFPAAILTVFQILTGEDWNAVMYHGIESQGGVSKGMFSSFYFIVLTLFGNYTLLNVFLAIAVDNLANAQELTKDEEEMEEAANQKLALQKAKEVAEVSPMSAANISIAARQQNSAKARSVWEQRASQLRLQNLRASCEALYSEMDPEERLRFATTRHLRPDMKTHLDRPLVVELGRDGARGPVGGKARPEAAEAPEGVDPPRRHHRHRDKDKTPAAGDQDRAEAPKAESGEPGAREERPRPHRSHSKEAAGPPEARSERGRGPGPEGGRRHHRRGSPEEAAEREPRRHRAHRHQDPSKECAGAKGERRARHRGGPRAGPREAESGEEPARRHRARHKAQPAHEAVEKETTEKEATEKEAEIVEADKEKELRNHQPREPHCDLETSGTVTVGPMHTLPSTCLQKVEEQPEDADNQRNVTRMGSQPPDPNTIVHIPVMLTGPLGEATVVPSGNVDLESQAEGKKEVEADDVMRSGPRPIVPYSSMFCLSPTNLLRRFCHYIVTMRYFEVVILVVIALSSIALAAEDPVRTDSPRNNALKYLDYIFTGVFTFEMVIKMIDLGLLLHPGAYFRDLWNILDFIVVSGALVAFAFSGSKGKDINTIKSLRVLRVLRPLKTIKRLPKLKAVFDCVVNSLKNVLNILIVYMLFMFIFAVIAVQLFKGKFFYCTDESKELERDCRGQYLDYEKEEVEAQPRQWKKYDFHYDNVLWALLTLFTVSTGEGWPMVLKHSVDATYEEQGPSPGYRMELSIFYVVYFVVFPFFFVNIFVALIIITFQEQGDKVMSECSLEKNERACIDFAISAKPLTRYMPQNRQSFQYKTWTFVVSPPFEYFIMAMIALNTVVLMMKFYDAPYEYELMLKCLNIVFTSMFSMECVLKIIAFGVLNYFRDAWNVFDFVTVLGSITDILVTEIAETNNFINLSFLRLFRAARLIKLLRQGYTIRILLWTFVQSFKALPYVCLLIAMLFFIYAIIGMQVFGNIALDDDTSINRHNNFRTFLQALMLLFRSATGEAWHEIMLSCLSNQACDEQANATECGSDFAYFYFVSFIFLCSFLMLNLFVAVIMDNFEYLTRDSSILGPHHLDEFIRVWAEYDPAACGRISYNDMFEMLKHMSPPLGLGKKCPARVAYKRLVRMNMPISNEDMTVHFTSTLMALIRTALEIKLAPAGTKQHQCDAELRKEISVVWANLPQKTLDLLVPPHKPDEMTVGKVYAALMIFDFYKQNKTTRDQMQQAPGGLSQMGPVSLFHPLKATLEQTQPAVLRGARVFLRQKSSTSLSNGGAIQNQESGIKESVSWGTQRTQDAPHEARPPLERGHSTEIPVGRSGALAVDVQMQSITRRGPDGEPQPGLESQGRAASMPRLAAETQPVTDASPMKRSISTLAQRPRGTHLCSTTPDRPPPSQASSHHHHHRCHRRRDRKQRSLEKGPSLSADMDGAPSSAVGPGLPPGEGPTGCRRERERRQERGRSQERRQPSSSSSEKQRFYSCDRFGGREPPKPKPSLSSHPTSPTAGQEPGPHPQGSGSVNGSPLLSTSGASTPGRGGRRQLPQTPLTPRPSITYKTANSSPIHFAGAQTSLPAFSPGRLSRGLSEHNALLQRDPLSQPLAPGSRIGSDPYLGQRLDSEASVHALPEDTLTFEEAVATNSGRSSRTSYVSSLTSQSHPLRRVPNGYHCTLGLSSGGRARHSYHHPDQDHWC

Row | Sequence | Inhibition of the N-type calcium channel (N-type calcium channel) | Neuroprotection (infarct size) [1]
1 | YGRKKRRQRRR [Tat] | sufficient to induce the observed inhibition | 
2 | YGRKKRRQRRRKLSSIESDV [Tat-NR2B9c, known neuroprotective peptide] |  | neuroprotective as seen by a reduced infarct size
